How the values were obtained:
[1] = target: HA glycoprotein of A/blackbird/Hunan/1/2004 (H5N1, clade 6) (influenza A virus A/blackbird/Hunan/1/2004 (H5N1))
[2] = target: HA glycoprotein of A/Thailand/(KAN-1)/2004 (H5N1, clade 1) (influenza A virus A/Thailand/(KAN-1)/2004 (H5N1))
[3] = target: HA glycoprotein of A/duck/Guangxi/1378/2004 (H5N1, clade 5) (influenza A virus A/duck/Guangxi/1378/2004 (H5N1))
[4] = target: HA glycoprotein of A/common magpie/Hong Kong/5052/2007 (H5N1, clade 2.3.2.1) (influenza A virus A/common magpie/Hong Kong/5052/2007 (H5N1))
[5] = target: HA glycoprotein of A/Turkey/65596/2006 (H5N1, clade 2.2.1) (influenza A virus A/Turkey/65596/2006 (H5N1))
[6] = target: HA glycoprotein of A/chicken/Guangxi/12/2004 (H5N1, clade 2.4) (influenza A virus A/chicken/Guangxi/12/2004 (H5N1))
[7] = target: HA glycoprotein of A/Indonesia/5/2005 (H5N1, clade 2.1.3.2) (influenza A virus A/Indonesia/5/2005 (H5N1))
[8] = target: HA glycoprotein of A/Shenzhen/406H/2006 (H5N1, clade 2.3.4) (influenza A virus A/Shenzhen/406H/2006 (H5N1))
[9] = target: HA glycoprotein of A/silky chicken/Hong Kong/SF189/2001 (H5N1, clade 3) (influenza A virus A/silky chicken/Hong Kong/SF189/2001 (H5N1))
[10] = target: HA glycoprotein of A/goose/Shantou/1621/2005 (H5N1, clade 9) (influenza A virus A/goose/Shantou/1621/2005 (H5N1))
[11] = target: HA glycoprotein of A/goose/Guiyang/337/2006 (H5N1, clade 4) (influenza A virus A/goose/Guiyang/337/2006 (H5N1))
[12] = target: HA glycoprotein of A/chicken/Korea/es/2003 (H5N1, clade 2.5) (influenza A virus A/chicken/Korea/es/2003 (H5N1))
[13] = target: HA glycoprotein of A/chicken/Henan/16/2004 (H5N1, clade 8) (influenza A virus A/chicken/Henan/16/2004 (H5N1))
[14] = target: HA glycoprotein of A/Hong Kong/156/1997 (H5N1, clade 0) (influenza A virus A/Hong Kong/156/1997 (H5N1)) (UniProt O56140)
[15] = target: HA glycoprotein of A/Chicken/Vietnam/NCVD-03/08 (H5N1, clade 7.1) (influenza A virus A/Chicken/Vietnam/NCVD-03/08 (H5N1))
[16] = target: HA glycoprotein of A/Chicken/Vietnam /NCVD-16/08 (H5N1, clade 7.1) (influenza A virus A/Chicken/Vietnam/NCVD-16/08 (H5N1))

Substance | IC50 of neutralisation of pseudovirus bearing this HA [1] [ng/mL] | IC50 of neutralisation of pseudovirus bearing this HA [2] [µg/mL] | IC50 of neutralisation of pseudovirus bearing this HA [3] [ng/mL] | IC50 of neutralisation of pseudovirus bearing this HA [4] [µg/mL] | IC50 of neutralisation of pseudovirus bearing this HA [5] [ng/mL] | IC50 of neutralisation of pseudovirus bearing this HA [6] [µg/mL] | IC50 of neutralisation of pseudovirus bearing this HA [7] [µg/mL] | IC50 of neutralisation of pseudovirus bearing this HA [8] [µg/mL] | IC50 of neutralisation of pseudovirus bearing this HA [9] [µg/mL] | IC50 of neutralisation of pseudovirus bearing this HA [10] [µg/mL] | IC50 of neutralisation of pseudovirus bearing this HA [11] [µg/mL] | IC50 of neutralisation of pseudovirus bearing this HA [12] [µg/mL] | IC50 of neutralisation of pseudovirus bearing this HA [13] [µg/mL] | IC50 of neutralisation of pseudovirus bearing this HA [14] [ng/mL] | IC50 of neutralisation of pseudovirus bearing this HA [15] [µg/mL] | IC50 of neutralisation of pseudovirus bearing this HA [16] [µg/mL]
65C6, full-length human IgG1 (antibody) | 7 | 0.029 | 5 | 0.034 | 2 | 0.005 | 0.004 | 0.02 | 0.011 | 0.007 | 0.025 | 0.005 | 0.014 | 5 |  | 
100F4, full-length human IgG1 (antibody) | 33 | 0.067 | 21 | 0.066 | 4 | 0.015 | 0.013 | 0.052 | 0.022 | 0.011 | 0.019 | 0.016 | 0.036 | 50 |  | 
AVFluIgG03, full-length human IgG1 (antibody) | 4 |  | 9 |  | 1860 |  | 4.75 | 0.002 | 0.069 | 0.018 |  |  |  | 8 | 0.069 | 0.03

From paper PMC4686829
